# Laboratory results as given in US20140206607A1 (INDIANA UNIVERSITY RESEARCH AND TECHNOLOGY, published 2014).
# Numbered stars: 1 amine (or outer) side, 2 acyl side, 3 side chain; on linkers, the order of the positions; unused ones are H or OH. Square brackets hold non-standard residues; d marks the D form. Side chains are listed from the residue outwards. Ends that are not written are not given here. * marks the point of attachment. γGlu = O=C(O)[C@H](CCC(=O)[*:2])N[*:1]; Desaminohistidyl = O=C(CCc1c[nH]cn1)*; Palmitoyl = CCCCCCCCCCCCCCCC(=O)*; EC16 = not defined here; Aib = CC(C)(N)C(=O)O
# T1: GIP receptor (UniProt P48546 22-466)
# T1 sequence (looked up): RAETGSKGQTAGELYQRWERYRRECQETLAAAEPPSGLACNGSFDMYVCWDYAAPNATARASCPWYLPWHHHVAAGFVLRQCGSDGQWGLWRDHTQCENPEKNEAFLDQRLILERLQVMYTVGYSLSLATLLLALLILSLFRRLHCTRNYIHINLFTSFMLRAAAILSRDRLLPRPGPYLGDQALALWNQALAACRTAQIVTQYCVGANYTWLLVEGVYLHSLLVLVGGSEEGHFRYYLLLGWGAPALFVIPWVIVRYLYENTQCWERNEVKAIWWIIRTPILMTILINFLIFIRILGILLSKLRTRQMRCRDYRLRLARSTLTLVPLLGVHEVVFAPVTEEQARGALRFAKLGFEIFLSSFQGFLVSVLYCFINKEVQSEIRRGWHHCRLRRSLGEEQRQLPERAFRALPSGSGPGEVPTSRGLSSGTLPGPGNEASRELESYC
# B1: peptide of SEQ ID NO: 25 (peptide)
# peptide: H[Aib]QGTFTSDK([γGlu-γGlu-Palmitoyl])SKYLD[Aib]RAAQDFVQWLKDGRP-NH2
# modifications: N-terminus assumed
# SMILES: CCCCCCCCCCCCCCCC(=O)N[C@@H](CCC(=O)N[C@@H](CCC(=O)NCCCC[C@H](NC(=O)[C@H](CC(=O)O)NC(=O)[C@H](CO)NC(=O)[C@@H](NC(=O)[C@H](Cc1ccccc1)NC(=O)[C@@H](NC(=O)CNC(=O)[C@H](CCC(N)=O)NC(=O)C(C)(C)NC(=O)[C@@H](N)Cc1c[nH]cn1)[C@@H](C)O)[C@@H](C)O)C(=O)N[C@@H](CO)C(=O)N[C@@H](CCCCN)C(=O)N[C@@H](Cc1ccc(O)cc1)C(=O)N[C@@H](CC(C)C)C(=O)N[C@@H](CC(=O)O)C(=O)NC(C)(C)C(=O)N[C@@H](CCCNC(=N)N)C(=O)N[C@@H](C)C(=O)N[C@@H](C)C(=O)N[C@@H](CCC(N)=O)C(=O)N[C@@H](CC(=O)O)C(=O)N[C@@H](Cc1ccccc1)C(=O)N[C@H](C(=O)N[C@@H](CCC(N)=O)C(=O)N[C@@H](Cc1c[nH]c2ccccc12)C(=O)N[C@@H](CC(C)C)C(=O)N[C@@H](CCCCN)C(=O)N[C@@H](CC(=O)O)C(=O)NCC(=O)N[C@@H](CCCNC(=N)N)C(=O)N1CCC[C@H]1C(N)=O)C(C)C)C(=O)O)C(=O)O
# B2: peptide of SEQ ID NO: 20 (peptide)
# peptide: [Desaminohistidyl][dS]QGTFTSDK([γGlu-Palmitoyl])SKYLDERAAQDFVQWLLDT-NH2
# SMILES: CCCCCCCCCCCCCCCC(=O)N[C@@H](CCC(=O)NCCCC[C@H](NC(=O)[C@H](CC(=O)O)NC(=O)[C@H](CO)NC(=O)[C@@H](NC(=O)[C@H](Cc1ccccc1)NC(=O)[C@@H](NC(=O)CNC(=O)[C@H](CCC(N)=O)NC(=O)[C@@H](CO)NC(=O)CCc1c[nH]cn1)[C@@H](C)O)[C@@H](C)O)C(=O)N[C@@H](CO)C(=O)N[C@@H](CCCCN)C(=O)N[C@@H](Cc1ccc(O)cc1)C(=O)N[C@@H](CC(C)C)C(=O)N[C@@H](CC(=O)O)C(=O)N[C@@H](CCC(=O)O)C(=O)N[C@@H](CCCNC(=N)N)C(=O)N[C@@H](C)C(=O)N[C@@H](C)C(=O)N[C@@H](CCC(N)=O)C(=O)N[C@@H](CC(=O)O)C(=O)N[C@@H](Cc1ccccc1)C(=O)N[C@H](C(=O)N[C@@H](CCC(N)=O)C(=O)N[C@@H](Cc1c[nH]c2ccccc12)C(=O)N[C@@H](CC(C)C)C(=O)N[C@@H](CC(C)C)C(=O)N[C@@H](CC(=O)O)C(=O)N[C@H](C(N)=O)[C@@H](C)O)C(C)C)C(=O)O
# B3: peptide of SEQ ID NO: 19 (peptide)
# peptide: H[dS]QGTFTSDK([γGlu-EC16])SKYLDERAAQDFVQWLLDGRG-NH2
# modifications: reading uncertain; also: printed as HsQGTFTSDK(gammaGlu-EC16)SKYLDERAAQDFVQWLLDGRG-amide
# B4: peptide of SEQ ID NO: 24 (peptide)
# peptide: H[Aib]QGTFTSDK([γGlu-γGlu-Palmitoyl])SKYLD[Aib]RAAQDFVQWLKDGRG-NH2
# modifications: N-terminus assumed
# SMILES: CCCCCCCCCCCCCCCC(=O)N[C@@H](CCC(=O)N[C@@H](CCC(=O)NCCCC[C@H](NC(=O)[C@H](CC(=O)O)NC(=O)[C@H](CO)NC(=O)[C@@H](NC(=O)[C@H](Cc1ccccc1)NC(=O)[C@@H](NC(=O)CNC(=O)[C@H](CCC(N)=O)NC(=O)C(C)(C)NC(=O)[C@@H](N)Cc1c[nH]cn1)[C@@H](C)O)[C@@H](C)O)C(=O)N[C@@H](CO)C(=O)N[C@@H](CCCCN)C(=O)N[C@@H](Cc1ccc(O)cc1)C(=O)N[C@@H](CC(C)C)C(=O)N[C@@H](CC(=O)O)C(=O)NC(C)(C)C(=O)N[C@@H](CCCNC(=N)N)C(=O)N[C@@H](C)C(=O)N[C@@H](C)C(=O)N[C@@H](CCC(N)=O)C(=O)N[C@@H](CC(=O)O)C(=O)N[C@@H](Cc1ccccc1)C(=O)N[C@H](C(=O)N[C@@H](CCC(N)=O)C(=O)N[C@@H](Cc1c[nH]c2ccccc12)C(=O)N[C@@H](CC(C)C)C(=O)N[C@@H](CCCCN)C(=O)N[C@@H](CC(=O)O)C(=O)NCC(=O)N[C@@H](CCCNC(=N)N)C(=O)NCC(N)=O)C(C)C)C(=O)O)C(=O)O
# B5: peptide of SEQ ID NO: 23 (peptide)
# peptide: H[Aib]QGTFTSDK([γGlu-γGlu-Palmitoyl])SKYLD[Aib]RAAQDFVQWLMKGRG-NH2
# modifications: N-terminus assumed
# SMILES: CCCCCCCCCCCCCCCC(=O)N[C@@H](CCC(=O)N[C@@H](CCC(=O)NCCCC[C@H](NC(=O)[C@H](CC(=O)O)NC(=O)[C@H](CO)NC(=O)[C@@H](NC(=O)[C@H](Cc1ccccc1)NC(=O)[C@@H](NC(=O)CNC(=O)[C@H](CCC(N)=O)NC(=O)C(C)(C)NC(=O)[C@@H](N)Cc1c[nH]cn1)[C@@H](C)O)[C@@H](C)O)C(=O)N[C@@H](CO)C(=O)N[C@@H](CCCCN)C(=O)N[C@@H](Cc1ccc(O)cc1)C(=O)N[C@@H](CC(C)C)C(=O)N[C@@H](CC(=O)O)C(=O)NC(C)(C)C(=O)N[C@@H](CCCNC(=N)N)C(=O)N[C@@H](C)C(=O)N[C@@H](C)C(=O)N[C@@H](CCC(N)=O)C(=O)N[C@@H](CC(=O)O)C(=O)N[C@@H](Cc1ccccc1)C(=O)N[C@H](C(=O)N[C@@H](CCC(N)=O)C(=O)N[C@@H](Cc1c[nH]c2ccccc12)C(=O)N[C@@H](CC(C)C)C(=O)N[C@@H](CCSC)C(=O)N[C@@H](CCCCN)C(=O)NCC(=O)N[C@@H](CCCNC(=N)N)C(=O)NCC(N)=O)C(C)C)C(=O)O)C(=O)O
# B6: peptide of SEQ ID NO: 21 (peptide)
# peptide: Ac-H[dS]QGTFTSDK([γGlu-Palmitoyl])SKYLDERAAQDFVQWLLDT-NH2
# SMILES: CCCCCCCCCCCCCCCC(=O)N[C@@H](CCC(=O)NCCCC[C@H](NC(=O)[C@H](CC(=O)O)NC(=O)[C@H](CO)NC(=O)[C@@H](NC(=O)[C@H](Cc1ccccc1)NC(=O)[C@@H](NC(=O)CNC(=O)[C@H](CCC(N)=O)NC(=O)[C@@H](CO)NC(=O)[C@H](Cc1c[nH]cn1)NC(C)=O)[C@@H](C)O)[C@@H](C)O)C(=O)N[C@@H](CO)C(=O)N[C@@H](CCCCN)C(=O)N[C@@H](Cc1ccc(O)cc1)C(=O)N[C@@H](CC(C)C)C(=O)N[C@@H](CC(=O)O)C(=O)N[C@@H](CCC(=O)O)C(=O)N[C@@H](CCCNC(=N)N)C(=O)N[C@@H](C)C(=O)N[C@@H](C)C(=O)N[C@@H](CCC(N)=O)C(=O)N[C@@H](CC(=O)O)C(=O)N[C@@H](Cc1ccccc1)C(=O)N[C@H](C(=O)N[C@@H](CCC(N)=O)C(=O)N[C@@H](Cc1c[nH]c2ccccc12)C(=O)N[C@@H](CC(C)C)C(=O)N[C@@H](CC(C)C)C(=O)N[C@@H](CC(=O)O)C(=O)N[C@H](C(N)=O)[C@@H](C)O)C(C)C)C(=O)O
# B7: peptide of SEQ ID NO: 22 (peptide)
# peptide: H[Aib]QGTFTSDK([γGlu-γGlu-Palmitoyl])SKYLD[Aib]RAAQDFVQWLMDGRG-NH2
# modifications: N-terminus assumed
# SMILES: CCCCCCCCCCCCCCCC(=O)N[C@@H](CCC(=O)N[C@@H](CCC(=O)NCCCC[C@H](NC(=O)[C@H](CC(=O)O)NC(=O)[C@H](CO)NC(=O)[C@@H](NC(=O)[C@H](Cc1ccccc1)NC(=O)[C@@H](NC(=O)CNC(=O)[C@H](CCC(N)=O)NC(=O)C(C)(C)NC(=O)[C@@H](N)Cc1c[nH]cn1)[C@@H](C)O)[C@@H](C)O)C(=O)N[C@@H](CO)C(=O)N[C@@H](CCCCN)C(=O)N[C@@H](Cc1ccc(O)cc1)C(=O)N[C@@H](CC(C)C)C(=O)N[C@@H](CC(=O)O)C(=O)NC(C)(C)C(=O)N[C@@H](CCCNC(=N)N)C(=O)N[C@@H](C)C(=O)N[C@@H](C)C(=O)N[C@@H](CCC(N)=O)C(=O)N[C@@H](CC(=O)O)C(=O)N[C@@H](Cc1ccccc1)C(=O)N[C@H](C(=O)N[C@@H](CCC(N)=O)C(=O)N[C@@H](Cc1c[nH]c2ccccc12)C(=O)N[C@@H](CC(C)C)C(=O)N[C@@H](CCSC)C(=O)N[C@@H](CC(=O)O)C(=O)NCC(=O)N[C@@H](CCCNC(=N)N)C(=O)NCC(N)=O)C(C)C)C(=O)O)C(=O)O
# Target: GLP-1 receptor (UniProt P43220 24-463, limits assumed)
# Experiment: cell-based or functional assay
row,Binder,EC50 (nM) at GLP-1 receptor
1,H[Aib]QGTFTSDK([γGlu-Palmitoyl])SKYLD[Aib]RAAQDFVQWLMKTK[dE]-OH [peptide of SEQ ID NO: 60],0.033 nM
2,B1,0.003 nM
3,B2,0.004 nM
4,"HXQGTFTSDKSKYLDERAAQDFVQWLMDT (Aib at 2; Lys 10 acylated, printed K(γEyEC16); C-terminal amide) [peptide of SEQ ID NO: 61]",0.004 nM
5,B3,0.002 nM
6,B4,0.004 nM
7,B5,0.004 nM
8,B6,0.009 nM
9,B7,0.002 nM

# Target: T1, GIP receptor
# Experiment: cell-based or functional assay
row,Binder,EC50 (nM) at GIP receptor
1,H[Aib]QGTFTSDK([γGlu-Palmitoyl])SKYLD[Aib]RAAQDFVQWLMKTK[dE]-OH [peptide of SEQ ID NO: 60],147 nM
2,B1,2.36 nM
3,B2,1.38 nM
4,"HXQGTFTSDKSKYLDERAAQDFVQWLMDT (Aib at 2; Lys 10 acylated, printed K(γEyEC16); C-terminal amide) [peptide of SEQ ID NO: 61]",0.676 nM
5,B3,0.812 nM
6,B4,1.46 nM
7,B5,1.58 nM
8,B6,4.5 nM
9,B7,2.37 nM

# Target: glucagon receptor (UniProt P47871 26-477, limits assumed)
# Experiment: cell-based or functional assay
# Sequence of glucagon receptor (P47871 26-477 limits assumed): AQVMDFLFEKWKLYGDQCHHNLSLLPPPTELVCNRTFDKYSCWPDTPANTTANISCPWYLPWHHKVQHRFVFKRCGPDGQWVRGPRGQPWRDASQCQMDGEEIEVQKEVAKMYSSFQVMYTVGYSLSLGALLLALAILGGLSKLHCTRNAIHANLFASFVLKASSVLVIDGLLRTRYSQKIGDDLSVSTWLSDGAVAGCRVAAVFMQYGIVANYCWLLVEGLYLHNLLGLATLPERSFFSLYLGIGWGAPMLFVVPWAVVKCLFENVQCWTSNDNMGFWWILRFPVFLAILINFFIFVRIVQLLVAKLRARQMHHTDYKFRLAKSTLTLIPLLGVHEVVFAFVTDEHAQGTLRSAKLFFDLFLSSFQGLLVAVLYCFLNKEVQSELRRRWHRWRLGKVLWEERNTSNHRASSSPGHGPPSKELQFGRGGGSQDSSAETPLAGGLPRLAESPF
row,Binder,EC50 (nM) at glucagon receptor
1,H[Aib]QGTFTSDK([γGlu-Palmitoyl])SKYLD[Aib]RAAQDFVQWLMKTK[dE]-OH [peptide of SEQ ID NO: 60],4.6 nM
2,B1,0.035 nM
3,B2,0.006 nM
4,"HXQGTFTSDKSKYLDERAAQDFVQWLMDT (Aib at 2; Lys 10 acylated, printed K(γEyEC16); C-terminal amide) [peptide of SEQ ID NO: 61]",0.009 nM
5,B3,0.004 nM
6,B4,0.021 nM
7,B5,0.023 nM
8,B6,0.005 nM
9,B7,0.005 nM
